In patent US20040146896A1, “Methods and compositions for diagnosing and treating companion animal cancer” (priority 2002, published 2004):

Columns and labels:
Type in all cases: cell-based
canine cell lines = assay: Cell Death ELISA apoptosis assay, canine cell lines; conditions: 100 ng/ml (FIG. 20B and data not shown)
Method: (§1) 4. Cell Death Detection ELISA Plus assay for apoptosis. The assay is based on a quantitative sandwich-enzyme-immunoassay-principle using mouse monoclonal antibodies directed against DNA and histones, respectively. This allows the specific determination of mono- and oligonucleosomes in the cytoplasmatic fraction of cell lysates. Roche kit, Cat. # 1 774 425, was used for this assay. 0.1 ml of U937 or any other types of cells (2×104 ) and 0.1 ml of tissue culture supernatant or other solutions containing apoptosis inducing agents (e.g. TRAIL) were used for this assay in 48-well plate. After 24 or 48 hrs of incubation at 3 7° C., the cells were spun at 2,000 rpm for 10 minutes. Cell pellet was then resuspended in 200 ul lysis buffer and incubated for 30 minutes at room temperature. The cell lysate was then centrifuged at 2,000 rpm for 10 minutes and diluted at 1:10 with incubation buffer. 20 ul of diluted lysate was added to coated plate (MTP from kit) and 80 ul of the immunoreagent was added to each well. MTP was then covered with adhesive cover foil and incubated under gentle shaking for 2 hours at room temperature. The solution was then removed thoroughly by tapping and subsequently rinsed 3 times with 250 ul incubation buffer. 100 ul ABTS solution was added and incubated on a plate shaker at 250 rpm for 15 minutes. Readings at 405 nm and 490 nm (background) were done on ELISA reader.

U937 human tumor cells [1] = assay: Cell Death Detection ELISA apoptosis assay, U937
Method: as §1, with “reader. […]” for “reader.”

U937 human tumor cells [2] = assay: Annexin V FACS apoptosis assay, U937
Text: 5. Annexin V apoptosis assay. ApoScreen Annexin V Apoptosis Kit (Cat. No. 10010-02, Southern Biotechnology Assoc. Inc.) was used for this assay. Annexin V detects the change in position of phosphatidy serine (PS) in the cell membrane. In non-apoptotic cells, most phosphatidyl serine molecules are at the inner layer of the plasma membrane. After inducing apoptosis, PS redistributes to the outer layer of the membrane. PS translocation precedes other apoptotic events allowing early detection of apoptosis. 1 ml of U937 cells (2×10^4) or any other types of cells and 1 ml of supernatant or other solutions containing apoptosis inducing agents (e.g. TRAIL) were used for assay in 6-well plate. After 48 hrs of incubation, cells were washed in 2 ml of cold PBS (Phosphate-buffered saline) and resuspended in 100 ul of cold 1× binding buffer. 10 ul of Annexin V-FITC was added to each tube and the tube was gently vortexed and subsequently incubated for 15 minutes in the dark at 4° C. 200 ul of cold 1× binding buffer was added to each tube and 10 ul-of PI was also added to each tube. The staining was then analyzed by flow cytometry.
U937 human tumor cells were grown in the presence or absence of TRAIL proteins produced from conditioned media of transfected 293 cells. The apoptosis of U937 cells induced by conditioned media was measured in this assay. […]

B1: human commercial TRAIL: human TRAIL (Upstate Biotechnology, 100 ng/ml), positive control (protein, UniProt P50591 1-281, looked up)
Tumor necrosis factor ligand …: MAMMEVQGGPSLGQTCVLIVIFTVLLQSLCVAVTYVYFTNELKQMQDKYSKSGIACFLKEDDSYWDPNDEESMNSPCWQVKWQLRQLVRKMILRTSEETISTVQEKQQNISPLVRERGPQRVAAHITGTRGRSNTLSSPNSKNEKALGRKINSWESSRSGHSFLSNLHLRNGELVIHEKGFYYIYSQTYFRFQEEIKENTKNDKQMVQYIYKYTSYPDPILLMKSARNSCWSKDAEYGLYSIYQGGIFELKENDRIFVSVTNEHLIDMDHEASFFGAFLVG
effect on canine cell lines, in words (canine cell lines): very minimal
apoptosis specific cell death of U937 cells, times that of control (U937 human tumor cells [1]; conditioned media of transfected 293 cells, two independent experiments (FIG. 9B)): 7 times that of control
induction of apoptosis of U937 cells, in words (U937 human tumor cells [1]; mammalian expressed TRAIL supernatants, commercial human TRAIL and Fas ligand 100 ng/ml (FIGS. 19B, 20B, 21B)): induced potent apoptosis
apoptosis of U937 cells (U937 human tumor cells [2]; conditioned media of transfected 293 cells, background 15-20% (FIG. 9C)): 45%
apoptosis of U937 cells (U937 human tumor cells [2]; experiment with bacteria expressed semi-purified TRAIL-Thio proteins (FIG. 12)): above 85%
